Assay results as given in patent publication US20260250322A1, “NEW PEPTIDES AS SELECTIVE IL-23 RECEPTOR INHIBITORS” (SANOFI, priority 2023, published 2026).
One block for each binder: values may come before it. Numbered stars: 1 amine (or outer) side, 2 acyl side, 3 side chain; on linkers, the order of the positions; unused ones are H or OH. Bridge positions count the residues as written; N and C are the ends. Square brackets hold non-standard residues; d marks the D form. Tyr(Me) = Yme = 4-methoxy-L-phenylalanine (O-methyl-tyrosine), COc1ccc(C[C@H](N[*:1])C(=O)[*:2])cc1; Trp(1-Me) = Cn1cc(C[C@H](N)C(=O)O)c2ccccc21; dAla(4-thiazolyl) = N[C@H](Cc1cscn1)C(=O)O; 1Nal = N[C@@H](Cc1cccc2ccccc12)C(=O)O; 2Nal = N[C@@H](Cc1ccc2ccccc2c1)C(=O)O; Cit = NC(=O)NCCC[C@H](N)C(=O)O; αMeL = CC(C)C[C@](C)(N)C(=O)O; Orn = NCCC[C@H](N)C(=O)O; Aib = CC(C)(N)C(=O)O

Target: T1, IL-23 receptor on the surface of HEK-Blue IL-23 cells (UniProt Q5VWK5 24-629, limits assumed)
T1 sequence (looked up): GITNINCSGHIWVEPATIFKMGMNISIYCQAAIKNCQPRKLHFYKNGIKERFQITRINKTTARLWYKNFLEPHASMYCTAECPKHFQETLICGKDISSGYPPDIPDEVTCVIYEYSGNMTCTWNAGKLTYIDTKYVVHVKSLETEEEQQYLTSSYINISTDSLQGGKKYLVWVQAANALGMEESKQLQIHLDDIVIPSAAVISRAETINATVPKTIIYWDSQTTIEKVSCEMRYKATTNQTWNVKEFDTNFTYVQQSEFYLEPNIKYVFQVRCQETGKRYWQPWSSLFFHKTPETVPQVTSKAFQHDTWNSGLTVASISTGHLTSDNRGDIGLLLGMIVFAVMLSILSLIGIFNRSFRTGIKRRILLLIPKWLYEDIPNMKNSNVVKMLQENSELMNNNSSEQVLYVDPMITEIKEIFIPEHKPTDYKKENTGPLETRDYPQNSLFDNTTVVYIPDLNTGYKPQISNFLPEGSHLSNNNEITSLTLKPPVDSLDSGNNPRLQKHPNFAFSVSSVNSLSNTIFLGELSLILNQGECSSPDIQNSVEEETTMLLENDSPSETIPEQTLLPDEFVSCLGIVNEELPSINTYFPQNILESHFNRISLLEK
Assay: cell-based or functional assay

B2: peptide IL-23 receptor inhibitor SEQ. ID NO. 24 (peptide)
peptide: Ac-[dK]NT[Trp(1-Me)]QR[Tyr(Me)][2Nal][αMeL]DNN-NH2
modifications: lactam 1-10
SMILES: COc1ccc(C[C@@H]2NC(=O)[C@H](CCCNC(=N)N)NC(=O)[C@H](CCC(N)=O)NC(=O)[C@H](Cc3cn(C)c4ccccc34)NC(=O)[C@H]([C@@H](C)O)NC(=O)[C@H](CC(N)=O)NC(=O)[C@H](NC(C)=O)CCCCNC(=O)C[C@@H](C(=O)N[C@@H](CC(N)=O)C(=O)N[C@@H](CC(N)=O)C(N)=O)NC(=O)[C@](C)(CC(C)C)NC(=O)[C@H](Cc3ccc4ccccc4c3)NC2=O)cc1
Inhibition of IL-23 induced pSTAT3 (IC50 nM): 385 nM

B4: peptide compound SEQ ID NO: 13 (peptide)
peptide: Ac-[dD]NTWQR[Tyr(Me)][2Nal][Aib][Orn]NN-NH2
modifications: lactam 1-10
SMILES: COc1ccc(C[C@@H]2NC(=O)[C@H](CCCNC(=N)N)NC(=O)[C@H](CCC(N)=O)NC(=O)[C@H](Cc3c[nH]c4ccccc34)NC(=O)[C@H]([C@@H](C)O)NC(=O)[C@H](CC(N)=O)NC(=O)[C@H](NC(C)=O)CC(=O)NCCC[C@@H](C(=O)N[C@@H](CC(N)=O)C(=O)N[C@@H](CC(N)=O)C(N)=O)NC(=O)C(C)(C)NC(=O)[C@H](Cc3ccc4ccccc4c3)NC2=O)cc1
Inhibition of IL-23 induced pSTAT3 (IC50 nM): 1150 nM

B7: peptide compound SEQ ID NO: 15 (peptide)
peptide: Ac-[dK]NTWQR[Tyr(Me)][2Nal][Aib]DNN-NH2
modifications: lactam 1-10
SMILES: COc1ccc(C[C@@H]2NC(=O)[C@H](CCCNC(=N)N)NC(=O)[C@H](CCC(N)=O)NC(=O)[C@H](Cc3c[nH]c4ccccc34)NC(=O)[C@H]([C@@H](C)O)NC(=O)[C@H](CC(N)=O)NC(=O)[C@H](NC(C)=O)CCCCNC(=O)C[C@@H](C(=O)N[C@@H](CC(N)=O)C(=O)N[C@@H](CC(N)=O)C(N)=O)NC(=O)C(C)(C)NC(=O)[C@H](Cc3ccc4ccccc4c3)NC2=O)cc1
Inhibition of IL-23 induced pSTAT3 (IC50 nM): 426 nM

B8: peptide compound SEQ ID NO: 10 (peptide)
peptide: Ac-[dK]NT[Trp(1-Me)]QR[Tyr(Me)][2Nal]K(Ac)DNN-NH2
modifications: lactam 1-10
SMILES: COc1ccc(C[C@@H]2NC(=O)[C@H](CCCNC(=N)N)NC(=O)[C@H](CCC(N)=O)NC(=O)[C@H](Cc3cn(C)c4ccccc34)NC(=O)[C@H]([C@@H](C)O)NC(=O)[C@H](CC(N)=O)NC(=O)[C@H](NC(C)=O)CCCCNC(=O)C[C@@H](C(=O)N[C@@H](CC(N)=O)C(=O)N[C@@H](CC(N)=O)C(N)=O)NC(=O)[C@H](CCCCNC(C)=O)NC(=O)[C@H](Cc3ccc4ccccc4c3)NC2=O)cc1
Inhibition of IL-23 induced pSTAT3 (IC50 nM): 1440 nM

B10: peptide compound SEQ ID NO: 12 (peptide)
peptide: Ac-[dD]NTWQR[Tyr(Me)][2Nal][Aib]KNN-NH2
modifications: lactam 1-10
SMILES: COc1ccc(C[C@@H]2NC(=O)[C@H](CCCNC(=N)N)NC(=O)[C@H](CCC(N)=O)NC(=O)[C@H](Cc3c[nH]c4ccccc34)NC(=O)[C@H]([C@@H](C)O)NC(=O)[C@H](CC(N)=O)NC(=O)[C@H](NC(C)=O)CC(=O)NCCCC[C@@H](C(=O)N[C@@H](CC(N)=O)C(=O)N[C@@H](CC(N)=O)C(N)=O)NC(=O)C(C)(C)NC(=O)[C@H](Cc3ccc4ccccc4c3)NC2=O)cc1
Inhibition of IL-23 induced pSTAT3 (IC50 nM): 6590 nM

B11: peptide compound SEQ ID NO: 3 (peptide)
peptide: Ac-[dK]NTWQR[Tyr(Me)][2Nal][Aib]DNN-NH2
modifications: lactam 1-10
SMILES: COc1ccc(C[C@@H]2NC(=O)[C@H](CCCNC(=N)N)NC(=O)[C@H](CCC(N)=O)NC(=O)[C@H](Cc3c[nH]c4ccccc34)NC(=O)[C@H]([C@@H](C)O)NC(=O)[C@H](CC(N)=O)NC(=O)[C@H](NC(C)=O)CCCCNC(=O)C[C@@H](C(=O)N[C@@H](CC(N)=O)C(=O)N[C@@H](CC(N)=O)C(N)=O)NC(=O)C(C)(C)NC(=O)[C@H](Cc3ccc4ccccc4c3)NC2=O)cc1
Inhibition of IL-23 induced pSTAT3 (IC50 nM): 430 nM

B12: peptide compound SEQ ID NO: 2 (peptide)
peptide: Ac-[dK]NTWQA[Tyr(Me)][2Nal][Aib]DNN-NH2
modifications: lactam 1-10
SMILES: COc1ccc(C[C@@H]2NC(=O)[C@H](C)NC(=O)[C@H](CCC(N)=O)NC(=O)[C@H](Cc3c[nH]c4ccccc34)NC(=O)[C@H]([C@@H](C)O)NC(=O)[C@H](CC(N)=O)NC(=O)[C@H](NC(C)=O)CCCCNC(=O)C[C@@H](C(=O)N[C@@H](CC(N)=O)C(=O)N[C@@H](CC(N)=O)C(N)=O)NC(=O)C(C)(C)NC(=O)[C@H](Cc3ccc4ccccc4c3)NC2=O)cc1
Inhibition of IL-23 induced pSTAT3 (IC50 nM): 234 nM

Second part, the binder after the results:

Inhibition of IL-23 induced pSTAT3 (IC50 nM): 320 nM
B1: peptide compound SEQ ID NO: 32 (peptide)
peptide: Ac-[dK]NTWQ[Aib][Tyr(Me)][2Nal][Aib]DNN-NH2
modifications: lactam 1-10
SMILES: COc1ccc(C[C@@H]2NC(=O)C(C)(C)NC(=O)[C@H](CCC(N)=O)NC(=O)[C@H](Cc3c[nH]c4ccccc34)NC(=O)[C@H]([C@@H](C)O)NC(=O)[C@H](CC(N)=O)NC(=O)[C@H](NC(C)=O)CCCCNC(=O)C[C@@H](C(=O)N[C@@H](CC(N)=O)C(=O)N[C@@H](CC(N)=O)C(N)=O)NC(=O)C(C)(C)NC(=O)[C@H](Cc3ccc4ccccc4c3)NC2=O)cc1

Inhibition of IL-23 induced pSTAT3 (IC50 nM): 128 nM
B3: peptide compound SEQ ID NO: 31 (peptide)
peptide: Ac-[dK]NTWQV[Tyr(Me)][2Nal][Aib]DNN-NH2
modifications: lactam 1-10
SMILES: COc1ccc(C[C@@H]2NC(=O)[C@H](C(C)C)NC(=O)[C@H](CCC(N)=O)NC(=O)[C@H](Cc3c[nH]c4ccccc34)NC(=O)[C@H]([C@@H](C)O)NC(=O)[C@H](CC(N)=O)NC(=O)[C@H](NC(C)=O)CCCCNC(=O)C[C@@H](C(=O)N[C@@H](CC(N)=O)C(=O)N[C@@H](CC(N)=O)C(N)=O)NC(=O)C(C)(C)NC(=O)[C@H](Cc3ccc4ccccc4c3)NC2=O)cc1

Inhibition of IL-23 induced pSTAT3 (IC50 nM): 1960 nM
B5: peptide compound SEQ ID NO: 23 (peptide)
peptide: Ac-[dK]NT[Trp(1-Me)]QR[Tyr(Me)][1Nal][αMeL]DNN-NH2
modifications: lactam 1-10
SMILES: COc1ccc(C[C@@H]2NC(=O)[C@H](CCCNC(=N)N)NC(=O)[C@H](CCC(N)=O)NC(=O)[C@H](Cc3cn(C)c4ccccc34)NC(=O)[C@H]([C@@H](C)O)NC(=O)[C@H](CC(N)=O)NC(=O)[C@H](NC(C)=O)CCCCNC(=O)C[C@@H](C(=O)N[C@@H](CC(N)=O)C(=O)N[C@@H](CC(N)=O)C(N)=O)NC(=O)[C@](C)(CC(C)C)NC(=O)[C@H](Cc3cccc4ccccc34)NC2=O)cc1

Inhibition of IL-23 induced pSTAT3 (IC50 nM): 10000 nM
B6: peptide compound SEQ ID NO: 20 (peptide)
peptide: Ac-[dK]NTWQV[Tyr(Me)][1Nal][Aib]DNN-NH2
modifications: lactam 1-10
SMILES: COc1ccc(C[C@@H]2NC(=O)[C@H](C(C)C)NC(=O)[C@H](CCC(N)=O)NC(=O)[C@H](Cc3c[nH]c4ccccc34)NC(=O)[C@H]([C@@H](C)O)NC(=O)[C@H](CC(N)=O)NC(=O)[C@H](NC(C)=O)CCCCNC(=O)C[C@@H](C(=O)N[C@@H](CC(N)=O)C(=O)N[C@@H](CC(N)=O)C(N)=O)NC(=O)C(C)(C)NC(=O)[C@H](Cc3cccc4ccccc34)NC2=O)cc1

Inhibition of IL-23 induced pSTAT3 (IC50 nM): 2720 nM
B9: peptide compound SEQ ID NO: 29 (peptide)
peptide: Ac-[dK]NTWQR[Tyr(Me)][2Nal][Cit]DNN-NH2
modifications: lactam 1-10
SMILES: COc1ccc(C[C@@H]2NC(=O)[C@H](CCCNC(=N)N)NC(=O)[C@H](CCC(N)=O)NC(=O)[C@H](Cc3c[nH]c4ccccc34)NC(=O)[C@H]([C@@H](C)O)NC(=O)[C@H](CC(N)=O)NC(=O)[C@H](NC(C)=O)CCCCNC(=O)C[C@@H](C(=O)N[C@@H](CC(N)=O)C(=O)N[C@@H](CC(N)=O)C(N)=O)NC(=O)[C@H](CCCNC(N)=O)NC(=O)[C@H](Cc3ccc4ccccc4c3)NC2=O)cc1

Inhibition of IL-23 induced pSTAT3 (IC50 nM): 3830 nM
B13: peptide compound SEQ ID NO: 25 (peptide)
peptide: Ac-[dK]NT[Trp(1-Me)]QR[Tyr(Me)][2Nal][dAla(4-thiazolyl)]DNN-NH2
modifications: lactam 1-10
SMILES: COc1ccc(C[C@@H]2NC(=O)[C@H](CCCNC(=N)N)NC(=O)[C@H](CCC(N)=O)NC(=O)[C@H](Cc3cn(C)c4ccccc34)NC(=O)[C@H]([C@@H](C)O)NC(=O)[C@H](CC(N)=O)NC(=O)[C@H](NC(C)=O)CCCCNC(=O)C[C@@H](C(=O)N[C@@H](CC(N)=O)C(=O)N[C@@H](CC(N)=O)C(N)=O)NC(=O)[C@@H](Cc3cscn3)NC(=O)[C@H](Cc3ccc4ccccc4c3)NC2=O)cc1

Inhibition of IL-23 induced pSTAT3 (IC50 nM): 7500 nM
B14: peptide compound SEQ ID NO: 21 (peptide)
peptide: Ac-[dK]NTWQ[Aib][Tyr(Me)][1Nal][Aib]DNN-NH2
modifications: lactam 1-10
SMILES: COc1ccc(C[C@@H]2NC(=O)C(C)(C)NC(=O)[C@H](CCC(N)=O)NC(=O)[C@H](Cc3c[nH]c4ccccc34)NC(=O)[C@H]([C@@H](C)O)NC(=O)[C@H](CC(N)=O)NC(=O)[C@H](NC(C)=O)CCCCNC(=O)C[C@@H](C(=O)N[C@@H](CC(N)=O)C(=O)N[C@@H](CC(N)=O)C(N)=O)NC(=O)C(C)(C)NC(=O)[C@H](Cc3cccc4ccccc34)NC2=O)cc1
